{
  "source": "paper PMC10014863",
  "about": "“Structural analysis of the housecleaning nucleoside triphosphate pyrophosphohydrolase MazG from Mycobacterium tuberculosis” (Frontiers in Microbiology, 2023)",
  "biological_target": "the molecule itself",
  "test": "SEC",
  "data": [
    {"protein": "Mtb-MazG (1–185) (domain or fragment) MIVVLVDPRRPTLVPVEAIEFLRGEVQYTEEMPVAVPWSLPAARSAHAGNDAPVLLSSDPNHPAVITRLAAGARLISAPDSQRGERLVDAVAMMDKLRTAGPWESEQTHDSLRRYLLEETYELLDAVRSGSVDQLREELGDLLLQVLFHARIAEDASQSPFTIDDVADTLMRKLGNRAPGVLAGE", "values": [
      {"measurement": "stoichiometry N", "value": 2}
    ]},
    {"protein": "Mtb-MazG E119A (enzyme) MIVVLVDPRRPTLVPVEAIEFLRGEVQYTEEMPVAVPWSLPAARSAHAGNDAPVLLSSDPNHPAVITRLAAGARLISAPDSQRGERLVDAVAMMDKLRTAGPWESEQTHDSLRRYLLEATYELLDAVRSGSVDQLREELGDLLLQVLFHARIAEDASQSPFTIDDVADTLMRKLGNRAPGVLAGESISLEDQLAQWEAAKASEKARKSVADDVHTGQPALALAQKVIQRAQKAGLPAHLIPDEITSVSVSADVDAENTLRTAVLDFIDRLRCAERAIAVARRGSNVAEQLDVTPLGVITEQEWLAHWPTAVNDSRGGSKKRKGMR", "values": [
      {"measurement": "stoichiometry N", "value": 2}
    ]},
    {"protein": "Mtb-MazG E122A (enzyme) MIVVLVDPRRPTLVPVEAIEFLRGEVQYTEEMPVAVPWSLPAARSAHAGNDAPVLLSSDPNHPAVITRLAAGARLISAPDSQRGERLVDAVAMMDKLRTAGPWESEQTHDSLRRYLLEETYALLDAVRSGSVDQLREELGDLLLQVLFHARIAEDASQSPFTIDDVADTLMRKLGNRAPGVLAGESISLEDQLAQWEAAKASEKARKSVADDVHTGQPALALAQKVIQRAQKAGLPAHLIPDEITSVSVSADVDAENTLRTAVLDFIDRLRCAERAIAVARRGSNVAEQLDVTPLGVITEQEWLAHWPTAVNDSRGGSKKRKGMR", "values": [
      {"measurement": "stoichiometry N", "value": 2}
    ]},
    {"protein": "Mtb-MazG E138A (enzyme) MIVVLVDPRRPTLVPVEAIEFLRGEVQYTEEMPVAVPWSLPAARSAHAGNDAPVLLSSDPNHPAVITRLAAGARLISAPDSQRGERLVDAVAMMDKLRTAGPWESEQTHDSLRRYLLEETYELLDAVRSGSVDQLREALGDLLLQVLFHARIAEDASQSPFTIDDVADTLMRKLGNRAPGVLAGESISLEDQLAQWEAAKASEKARKSVADDVHTGQPALALAQKVIQRAQKAGLPAHLIPDEITSVSVSADVDAENTLRTAVLDFIDRLRCAERAIAVARRGSNVAEQLDVTPLGVITEQEWLAHWPTAVNDSRGGSKKRKGMR", "values": [
      {"measurement": "stoichiometry N", "value": 2}
    ]},
    {"protein": "Mtb-MazG D141A (enzyme) MIVVLVDPRRPTLVPVEAIEFLRGEVQYTEEMPVAVPWSLPAARSAHAGNDAPVLLSSDPNHPAVITRLAAGARLISAPDSQRGERLVDAVAMMDKLRTAGPWESEQTHDSLRRYLLEETYELLDAVRSGSVDQLREELGALLLQVLFHARIAEDASQSPFTIDDVADTLMRKLGNRAPGVLAGESISLEDQLAQWEAAKASEKARKSVADDVHTGQPALALAQKVIQRAQKAGLPAHLIPDEITSVSVSADVDAENTLRTAVLDFIDRLRCAERAIAVARRGSNVAEQLDVTPLGVITEQEWLAHWPTAVNDSRGGSKKRKGMR", "values": [
      {"measurement": "stoichiometry N", "value": 2}
    ]}
  ]
}
